Where two headings read alike, the source gives them in different places.

The target of one test is T1, human PD-1-Fc (human, UniProt Q15116 25-170, limits assumed).
T1 construct: ELISA antigen
In words: ELISA, binding to human PD-1-Fc. (In an ELISA, binding on a coated surface is turned into a signal by an enzyme label.)

The target in test [1] is T2, human PD-1 (human, UniProt Q15116 25-167, limits assumed).
T2 construct: Analyte in solution in the Biacore runs; also called programmed cell death protein 1
In words: SPR (Biacore), antibody as ligand, PD-1 as analyte. (In general: SPR reads the build-up and loss of mass on a sensor chip optically.)

Test [2] addresses T3, mouse PD-1 (mouse, UniProt Q02242 25-167, limits assumed).
T3 construct: Analyte in solution in the Biacore runs
T3 sequence: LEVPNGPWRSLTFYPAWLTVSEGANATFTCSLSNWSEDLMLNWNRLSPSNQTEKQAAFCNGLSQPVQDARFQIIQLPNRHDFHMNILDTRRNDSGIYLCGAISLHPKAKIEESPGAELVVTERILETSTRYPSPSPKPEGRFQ
Kind of test: SPR (Biacore), antibody as ligand, PD-1 as analyte.

Test [3] has as its target T2, human PD-1. Kind of test: SPR (Biacore), antibody as ligand, PD-1 as analyte. The source holds these as a separate data set.
In test [4] the target is T2, human PD-1. In words: SPR (Biacore), antibody as ligand, PD-1 as analyte. The source holds these as a separate data set.
The target of test [5] is T3, mouse PD-1. In words: SPR (Biacore), antibody as ligand, PD-1 as analyte. The source holds these as a separate data set.

T2 sequence (Q15116 25-167 limits assumed): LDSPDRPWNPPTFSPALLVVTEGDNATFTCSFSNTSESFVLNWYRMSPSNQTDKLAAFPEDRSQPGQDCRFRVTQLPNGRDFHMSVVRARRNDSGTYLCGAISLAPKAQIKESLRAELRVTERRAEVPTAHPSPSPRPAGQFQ
T1 sequence (Q15116 25-170 limits assumed): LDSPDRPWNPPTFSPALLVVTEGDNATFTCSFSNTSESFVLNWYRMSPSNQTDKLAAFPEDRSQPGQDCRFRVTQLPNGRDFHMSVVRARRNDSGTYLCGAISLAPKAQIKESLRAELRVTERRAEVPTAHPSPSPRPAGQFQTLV

B1: monoclonal antibody 5C2 (antibody, IgG1, V domains shown)
VH: QVQLQQPGAELVKPGASVKVSCKASGYTFTSYWMHWVKQRPGQGLEWIGRIHPSDSDTNYNQKFKGKATLTVDKSSSTAYMQLSSLTSEDSAVYYCAPYGNYASGFAYWGQGTLVTVSA
VL: DIVMTQSHKFMSTSVGDRVSITCKASQDVSTAVAWYQQKPGQSPKLLIYWASTRHTGVPDRFTGSGSGTDYTLTISSVQAEDLALYYCQQHYSTPWTFGGGTKLEIKR
notes: the two clones are reported with different SPR values; also called 5C2 anti-PD-1 antibody
A word on the EC50 (read off the curve): it is the concentration needed to bring the measured effect to its halfway point. One may read the Kd as the free concentration of one partner at which half of the binding sites on the other are occupied at equilibrium, for simple one-to-one binding. Low values mean a tighter complex, high ones a looser complex. Take B1: the “EC50 (read off the curve)” value with human PD-1-Fc is roughly 1 µg/mL. In the test with human PD-1 [1], this molecule had a Ka of 202000 M⁻¹ and a Kd of 4950 nM. In the test with mouse PD-1 [2], the Ka is 1.18e+06 M⁻¹ and binding was put at a Kd of 850 nM.

B2: monoclonal antibody 4C12 (antibody, mouse IgG1, kappa, V domains shown)
VH: QVQLQQPGAELVKPGASVKVSCKASGYTFTSYWMHWVKQRPGQGLEWIGRIHPSDSDTNYNQKFKGKATLTVDKSSSTAYMQLSSLTSEDSAVYYCAPYGNYASGFAYWGQGTLVTVSA
VL: DIVMTQSHKFMSTSVGDRVSITCKASQDVSTAVAWYQQKPGQSPKLLIYWASTRHTGVPDRFTGSGSGTDYTLTISSVQAEDLALYYCQQHYSTPWTFGGGTKLEIKR
notes: also called 4C12 anti-PD-1 antibody
Regarding B2, in the test with human PD-1 [3], the Ka was 3.14e+06 M⁻¹ and the Kd is 319 nM.

B3: monoclonal antibody 4G9 (antibody, mouse IgG2b, kappa, V domains shown)
VH: QIQLVQSGPELKKPGETVKISCKASGYTFTTYGMTWVKQAPGKGLKWMGWINTYSGVPTYADDFKGRFAFSLETSASTAYLQINNLKNEDTATYFCARGGRGFAYWGQGTLVTVSA
VL: DILLTQSPAILSVSPGERVSFSCRASQSIGTSIHWYQQRTNGSPRLLIKYASESISGIPSRFSGSGSGTDFTLSINSVESEDIADYYCQQSNSWPYTFGGGTKLEIKR
notes: also called 4G9 anti-PD-1 antibody
In general, koff refers to the first-order rate constant of dissociation. The low end stands for a long-lived complex, the high end for a short-lived complex. As a reminder, the kon is the second-order rate constant of association. A high value points to faster complex formation. Regarding B3, in the test with human PD-1-Fc, the “EC50 (read off the curve)” value was roughly 0.5 µg/mL. In the test with human PD-1 [4], this molecule returned a Ka of 952000 M⁻¹ and a Kd of 1050 nM. In the test with mouse PD-1 [5], this molecule came in with a Ka of 194000 M⁻¹, a Kd of 5150 nM, a koff of 0.0103 s⁻¹ and a kon of 2000 M⁻¹ s⁻¹.

(Values after US20250154256A1 (AUGUSTA UNIVERSITY RESEARCH INSTITUTE, published 2025).)
